This is an account of results in paper PMC12098869, “An mRNA-display derived cyclic peptide scaffold reveals the substrate binding interactions of an N-terminal cysteine oxidase” (Nature Communications, 2025).

Several values for one entry are separate records, joined by “and”; a condition that tells them apart may be missing. Equal values may be shown once. Read-outs that look alike come from different tables or passages of the source. Where a SMILES comes first, the peptide text is derived from it. Bridges are numbered along the chain shown (N, C = ends). Where no end group is shown, it is not given here. Side-chain parts run from the residue outwards. [ ]: non-standard residue; d: D form. Dap = NC[C@H](N)C(=O)O Where only a bound is given, the exact number is not on record here.

Assay [1] addresses T1, human ADO (Homo sapiens, UniProt Q96SZ5).
T1 construct: Full-length human ADO (Uniprot ID: Q96SZ5) was cloned; made in house; host or cells: E. coli Rosetta2(DE3)
T1 sequence (Q96SZ5 1-270): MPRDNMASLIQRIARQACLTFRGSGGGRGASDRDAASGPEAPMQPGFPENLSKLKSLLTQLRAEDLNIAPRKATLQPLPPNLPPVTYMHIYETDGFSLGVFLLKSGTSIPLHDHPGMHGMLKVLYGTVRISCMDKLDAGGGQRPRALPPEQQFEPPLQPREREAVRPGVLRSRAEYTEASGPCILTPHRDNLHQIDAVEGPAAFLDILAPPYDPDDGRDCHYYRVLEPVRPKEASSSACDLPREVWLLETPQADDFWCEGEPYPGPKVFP
As to the kind of experiment: ADO activity inhibition assay (RGS5_2-15 oxidation monitored by LCMS): single-dose and IC50. The class given is biochemical. As for the experimental part:
We next tested the ability of the CPs to inhibit ADO activity. ADO activity was measured with and without 10 μM of each CP using an established stopped assay in which the oxidation of a representative substrate (RGS5_2-15; a synthetic peptide corresponding to the methionine excised N-terminus of RGS5, residues 2 to 15) was monitored by liquid chromatography coupled mass spectrometry (LCMS)[7],[35],[36].
The enzymatic activity of ADO was examined by incubating between 0–1000 μM peptide substrates with 0.1 μM ADO in a bench-top thermomixer at 37 °C for 45 seconds. Otherwise stated, the reaction buffer contained 50 mM Tris pH 7.5, 50 mM NaCl, and 5 mM TCEP. The reactions were quenched by mixing the sample 1:10 with 1% formic acid (v/v).
Peptide samples were injected onto a Chromolith® RP-18 Endcapped HPLC Columns (100–2 mm; Merck), heated to 40 °C and eluted at 0.3 ml/min using a gradient of 95% deionised water supplemented with 0.1% (v/v) formic acid to 95% acetonitrile. Oxidation was monitored by an ultra-high-performance liquid chromatography (UHPLC) mass spectrometry (MS) using ExionLC AD (Sciex) and SelexION (Sciex) mass spectrometer operated in a positive electrospray time-of-flight ( + ESI-TOF) mode. Instrument parameters, data acquisition and data processing were controlled by Analyst software (Sciex). The peptide data processing was performed using Skyline software. Turnover was quantified by comparing the areas underneath the product and substrate ions extracted from the total ion current chromatogram. All figures and parameters were generated using GraphPad Prism 9.

Assay [2] deals with T1, human ADO. As to the kind of experiment: SPR single-cycle kinetic (SCK) binding of cyclic peptides to ADO. The following applies: 1:1 binding model, 4 °C, geometric mean of a minimum of three independent measurements (n = 3) with standard error. An excerpt:
After six cycles, clear enrichment of several CPs was observed by next-generation sequencing. The most enriched CPs (CP1-8, numbered according to their percentage enrichment in the final selection round) were selected for subsequent analysis (Table 1). CP1, 5, 6 and 7 are related in sequence, while CP2, 3, 4, and 8 are unique compositions (Fig. 1b). These CPs were subsequently produced by solid-phase peptide synthesis (SPPS) and analysed by surface plasmon resonance (SPR) using single cycle kinetic (SCK) analysis to confirm and quantify binding to ADO. ADO could interact with each CP to varying degrees (Supplementary Fig. 4, Table 1, Fig. 1dleft).
SPR measurements were made using a Biacore T200 (Cytiva) instrument and data were analysed using the Biacore Insight Evaluation Software. Biotinylated-ADO was immobilised on a Biotin CAP chip (Cytiva) with a target density of ∼2500–3000 RU and peptide/protein substrates were injected over the chip. Experiments were conducted at 4 °C using both multi-cycle (fit using the equilibrium steady state affinity 1:1 binding model) and single-cycle kinetics mode (fit using a 1:1 binding model). A buffer comprising 20 mM HEPES pH 7.5, 500 mM NaCl, 10 mM DTT, and 0.1% (v/v) tween-20 was used as the running buffer at a flow rate of 50 μL/minute.

Assay [3] deals with T2, 2-aminoethanethiol dioxygenase (ADO), full-length human, N-terminally His-tagged and biotinylated … (human, UniProt Q96SZ5 1-270, biotin (biotinylated during expression, 0.2 mM biotin added)).
T2 construct: 2-aminoethanethiol dioxygenase (ADO), human, UniProt Q96SZ5, full length; Immobilised through its biotin on a Biotin CAP chip for SPR; also called wild type ADO; Biotinylated-ADO; source: E. coli Rosetta2(DE3), purified (Ni-NTA, SEC); not shown: biotinylation tag (from the vector pQE80L-Navi), N-terminal, kept
T2 sequence (looked up): T1 sequence (Q96SZ5 1-270)
As to the kind of experiment: SPR; single-cycle kinetics (1:1 binding model); biotinylated ADO immobilised on a Biotin CAP chip (~2500-3000 RU), cyclic peptide injected; Biacore T200, 4 °C; 20 mM HEPES pH 7.5, 500 mM NaCl, 10 mM DTT, 0.1% tween-20; 50 µL/minute; each cell is one of three independent measurements. The following applies: both partners purified. Summed up:
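Cyclic peptides were run over biotinylated, His-tagged full-length human ADO that had been expressed in E. coli, purified by nickel affinity and gel filtration, and captured on a Biotin CAP chip (about 2500–3000 RU) in a Biacore T200. Flow was 50 µL/minute at 4 °C in HEPES pH 7.5 buffer with 500 mM NaCl, DTT and tween-20. Kd values come from 1:1 fits of single-cycle kinetic sensorgrams across three independent measurements.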
On the technique in general: SPR reads the build-up and loss of mass on a sensor chip optically.

Assay [4] addresses T2, 2-aminoethanethiol dioxygenase (ADO), …. As to the kind of experiment: SPR; single-cycle kinetics (1:1 binding model); biotinylated ADO immobilised on a Biotin CAP chip (~2500-3000 RU), cyclic peptide injected; Biacore T200, 4 °C; 20 mM HEPES pH 7.5, 500 mM NaCl, 10 mM DTT, 0.1% tween-20; 50 µL/minute; each cell is one of three independent measurements. The note with it: both partners purified. The source holds these as a separate data set.

Assay [5] addresses T3, 2-aminoethanethiol dioxygenase (ADO), full-length human, N-terminally His-tagged and biotinylated … (human, UniProt Q96SZ5 1-270, biotin (biotinylated during expression, 0.2 mM biotin added)).
T3 construct: 2-aminoethanethiol dioxygenase (ADO), human, UniProt Q96SZ5, full length; Construct used for RaPID screening and all SPR experiments; No tag cleavage step is described in its purification; also called wild type ADO; biotinylated ADO; source: E. coli Rosetta2(DE3), purified (Ni-NTA, SEC); not shown: biotinylation tag (from the vector pQE80L-Navi), N-terminal, kept
T3 sequence (looked up): T1 sequence (Q96SZ5 1-270)
As to the kind of experiment: SPR; single cycle kinetic (SCK) analysis, 1:1 binding model; biotinylated ADO immobilised on a Biotin CAP chip (~2500-3000 RU), cyclic peptides injected; 4 °C; 20 mM HEPES pH 7.5, 500 mM NaCl, 10 mM DTT, 0.1% tween-20; 50 μL/minute. The note with it: both partners purified.

The mark [6] stands for this setting: RGS5_2-15 substrate, LCMS, 37 °C, average of three independent experiments (n = 3), standard error, read-out: IC50.

With `CC(C)C[C@@H]1NC(=O)[C@H](Cc2ccc(O)cc2)NC(=O)[C@H](CC(C)C)NC(=O)[C@H]([C@@H](C)O)NC(=O)[C@H](C(C)C)NC(=O)[C@H](CC(C)C)NC(=O)[C@H](CC(C)C)NC(=O)[C@H](Cc2ccc(O)cc2)NC(=O)CSC[C@@H](C(N)=O)NC(=O)[C@H](CO)NC(=O)[C@H](CCCNC(=N)N)NC(=O)[C@H](Cc2c[nH]cn2)NC(=O)[C@H]([C@@H](C)O)NC(=O)CNC1=O` [CP7] ({CH2CO}-YLLVTLYLGTHRSC-NH2; thioether N-14), the IC50 on human ADO [1] (setting [6]) came to 9920 ± 290 nM. Also, the KD entry at human ADO [2] is listed as “non-specific binding”. With `CC[C@H](C)[C@@H]1NC(=O)[C@H]([C@@H](C)O)NC(=O)CNC(=O)[C@H](CC(C)C)NC(=O)[C@H](C(C)C)NC(=O)[C@H](Cc2ccc(O)cc2)NC(=O)[C@H](Cc2ccc(O)cc2)NC(=O)[C@H](Cc2ccc(O)cc2)NC(=O)CSC[C@@H](C(N)=O)NC(=O)[C@H](Cc2ccccc2)NC(=O)[C@H](CCCNC(=N)N)NC(=O)[C@H](Cc2ccc(O)cc2)NC(=O)[C@H](CCCNC(=N)N)NC(=O)[C@H](CCCCN)NC(=O)[C@H](C(C)C)NC(=O)[C@H](CC(C)C)NC1=O` [CP4] ({CH2CO}-YYYVLGTILVKRYRFC-NH2; thioether N-16), on human ADO [1] (setting [6]), the IC50 is greater than 50000 nM. Further, the Kd on human ADO [2] is 1300 ± 140 nM. `CC[C@H](C)[C@@H]1NC(=O)[C@H](Cc2ccc(O)cc2)NC(=O)CSC[C@@H](C(N)=O)NC(=O)[C@H](CCC(N)=O)NC(=O)[C@H](CCCNC(=N)N)NC(=O)[C@H](Cc2c[nH]cn2)NC(=O)[C@H](CO)NC(=O)CNC(=O)[C@H](CC(C)C)NC(=O)[C@H](Cc2c[nH]c3ccccc23)NC(=O)[C@H](CO)NC(=O)[C@H]([C@@H](C)O)NC(=O)[C@H](CCCCN)NC(=O)[C@H](C(C)C)NC1=O` [CP6-F6S] ({CH2CO}-YIVKTSWLGSHRQC-NH2; thioether N-14): on human ADO [1] (as given in the legend of Fig. 2c (concentration of CP added), read-out: half-maximal inhibitory concentration (IC50)), the IC50 was 200 nM.

B1: Cyclic peptide CP6 (peptide)
peptide: {CH2CO}-YIVKTFWLGSHRQC-NH2
modifications: thioether N-14
SMILES: CC[C@H](C)[C@@H]1NC(=O)[C@H](Cc2ccc(O)cc2)NC(=O)CSC[C@@H](C(N)=O)NC(=O)[C@H](CCC(N)=O)NC(=O)[C@H](CCCNC(=N)N)NC(=O)[C@H](Cc2c[nH]cn2)NC(=O)[C@H](CO)NC(=O)CNC(=O)[C@H](CC(C)C)NC(=O)[C@H](Cc2c[nH]c3ccccc23)NC(=O)[C@H](Cc2ccccc2)NC(=O)[C@H]([C@@H](C)O)NC(=O)[C@H](CCCCN)NC(=O)[C@H](C(C)C)NC1=O
notes: selected by RaPID mRNA display against ADO; source: synthetic peptide (SPPS)
Consider B1, for which the Kd in assay [3] was 50.9 nM and 50.4 nM and 50.6 nM; in assay [4], 28.9 nM and 28.6 nM and 31.2 nM.

B2: CP6-K4A (peptide)
peptide: {CH2CO}-YIVATFWLGSHRQC
modifications: thioether N-14
notes: the substitution K4A is to be applied to them; Single amino acid substituent of CP6; source: synthetic peptide
Take B2: the dissociation constant (Kd) in assay [4] was 429 nM and 397 nM and 428 nM. For {CH2CO}-YIVKTFW[Dap]([Phe-Ser])GSHRQC (thioether N-14) [CP6-L8d-Phe-Ser, listing 1 of 2 here], the dissociation constant Kd in assay [3] was 79.9 nM and 77.7 nM and 78.1 nM. Take {CH2CO}-YIVKTFW[Dap]([Lys-Ser])GSHRQC (thioether N-14) [CP6-L8d-Lys-Ser]: the dissociation constant (Kd) in assay [5] amounted to 490 nM. For the molecule {CH2CO}-YIVKTFW[Dap]([Phe-Ser])GSHRQC (thioether N-14) [CP6-L8d-Phe-Ser, listing 2 of 2 here], the affinity in assay [5], expressed as Kd, was 79 nM. Turning to {CH2CO}-YIVKTFW[Dap]([Gly-Ser])GSHRQC (thioether N-14) [CP6-L8d-Gly-Ser], the Kd in assay [5] came to 150 nM.

As a reminder, the Kd is the equilibrium constant for the complex coming apart.
